Measured values published in the RNAGym collection of RNA variant scans (doi:10.7554/elife.90254).

B1: OR4K15 (parent)
chain: GUUAACGGUCAUAGGCCAUGGAAACUAGGAGCACCAUUUCGCUGCCAGUGAAGAAAUGAACAAAGAAAAUCUGGGCCAGGCAGGCAUCAAAAGAAAUAGUCUUGCGCUCAACCAGAAAGUCUGUAAUCAUUUUAAGGGUA

Variants of: B1
Assay: self-cleavage, relative activity (ratio to wild type); higher = more cleavage; in vitro, sequencing; the parent is a self-cleaving ribozyme

Row | Variant | self-cleavage
1 | A33G C113A | 0.01
2 | C34A G73A | 0.17
3 | G31A G73U | 0.3
4 | C34U U43A | 0.99
5 | C34U U70C | 0.23
6 | A33U U43C | 0.26
7 | G31A A90G | 1.8
8 | A30U C105U | 0.4
9 | A33U A118C | 1.06
10 | A33U A118G | 0.91
11 | G31U A82G | 0.19
12 | G31U A82U | 0.27
13 | C34U A118G | 1.49
14 | G31C A56G | 1.63
15 | A30G U37A | 1.7
16 | A30G U37C | 0.98
17 | A30U A82U | 0.23
18 | A30G U70C | 0.75
19 | A30G C128U | 1.78
20 | C34U U103A | 0.44
21 | C34U U103G | 0.04
22 | A33U A69G | 1.71
23 | A30G U49C | 1.07
24 | A30G U38G | 1.4

Row | Variant | self-cleavage
25 | G31A U70A | 1.73
26 | C32U A36U | 1.76
27 | C32U U87C | 1.36
28 | A33G A54C | 0.95
29 | A33G A54G | 1.06
30 | A30U A59U | 1.6
31 | A30U G79U | 0.09
32 | A30U U103A | 0.53
33 | A30U U103G | 0.03
34 | C32A G79A | 0.17
35 | C35U A52G | 1.03
36 | A33G U43A | 1.32
37 | G31A A51G | 1.64
38 | C34U U72C | 0.17
39 | A30U U122C | 1.35
40 | A33C A51U | 2.27
41 | A33C A51G | 1.64
42 | C32G A95G | 1.87
43 | A33G A52U | 1.42
44 | A33G A52G | 0.91
45 | A33U U108C | 0.05
46 | A33G U108C | 0.02
47 | A33G U108A | 0.02
48 | A33G A94G | 0.75

Row | Variant | self-cleavage
49 | G31U A63G | 2.02
50 | A33C U127C | 1.38
51 | C34A A55G | 1.25
52 | C34A A59G | 1.11
53 | A33U C112U | 0.01
54 | C35A A94G | 2.34
55 | G31A A56G | 1.41
56 | C34U A91G | 1.1
57 | C32U A96G | 0.99
58 | A30U A134G | 1.06
59 | C32U U103C | 0.91
60 | C34U A62G | 1.25
61 | C34U A55G | 2.06
62 | G31U U133C | 2.47
63 | G31A A60C | 1.95
64 | A33U U102C | 2.32
65 | A30U U132C | 1.33
66 | A33C A68U | 2.07
67 | A33U U122A | 2.69
68 | A33U U122C | 1.02
69 | A30U A111G | 0.02
70 | C35U A56G | 1.13
71 | C34U U122C | 2.62
72 | A30G C35A | 0.7

Row | Variant | self-cleavage
73 | C34U U124A | 0.3
74 | A33U U37C | 1.51
75 | C32U C105U | 0.18
76 | A30G G31C | 2
77 | C32U A63G | 1.39
78 | A33C A91G | 1.57
79 | A30U A78U | 0.2
80 | G31A U108C | 0.03
81 | A33C A135G | 1.64
82 | C35A A91G | 1.42
83 | C35A C121A | 1.53
84 | A33G U70A | 0.5
85 | C35A A51U | 1.93
86 | A30G G119A | 2.01
87 | C32U U120C | 1.57
88 | C34U U49C | 1.17
89 | A30U U87C | 0.96
90 | A33U A117G | 1.9
91 | A33U U127A | 2.74
92 | A33G A118G | 0.49
93 | G31A U87A | 1.76
94 | A33G A51U | 0.82
95 | A33G A51C | 0.52
96 | A33G A51G | 0.75

Row | Variant | self-cleavage
97 | C34U A129G | 0.51
98 | A33C A116G | 0.76
99 | A30U A126G | 1.03
100 | C32U A54G | 1.37
101 | A30G U108C | 0.02
102 | A30U A135U | 1.23
103 | C32U U124C | 1.15
104 | A33U U39C | 1.56
105 | A30U A89U | 1.55
106 | G31A A47G | 1
107 | G31A A47U | 0.83
108 | C32U A117U | 0.3
109 | A33G U49G | 0.61
110 | A33G U49C | 0.5
111 | A33G A78U | 0.14
112 | A33G C42G | 1.02
113 | A33U A135U | 1.79
114 | C34U C128A | 1.3
115 | C34A U43A | 1.8
116 | C34U A92G | 1.04
117 | A33G A86G | 0.7
118 | A33C U49C | 1.93
119 | A30U A95G | 0.89
120 | A33G A129U | 0.39

Row | Variant | self-cleavage
121 | A33G A129G | 0.35
122 | A30G G53C | 1.95
123 | A30U A36G | 1.71
124 | C35U | 1.06
125 | C35A | 1.58
126 | C35G | 1.34
127 | C32A U108C | 0.03
128 | C34A U102A | 1.09
129 | A30G U102A | 0.78
130 | A30G U102C | 1.21
131 | A33G U37C | 0.74
132 | A33G U37A | 1.02
133 | A33U C105U | 0.49
134 | A33G U127A | 1.19
135 | A33G U127C | 0.23
136 | G31A C32U | 1.42
137 | A33G C77U | 1.59
138 | A33G A66U | 0.35
139 | A30G U57G | 1.24
140 | A30G U57A | 1.15
141 | C34A A92C | 0.26
142 | A33U A110G | 0.08
143 | A33U A110U | 1.71
144 | G31C U102C | 1.92

Row | Variant | self-cleavage
145 | A30U A68G | 1.62
146 | C35U A95C | 0.87
147 | G31C U122A | 1.89
148 | A33U A51C | 2.09
149 | A33U A51G | 1.97
150 | C34U U127C | 1.39
151 | A33U C128A | 0.48
152 | A33U C128U | 1.3
153 | A33U U120C | 1.32
154 | A30U A62G | 1.16
155 | G31C A125G | 0.93
156 | A30U U97C | 0.83
157 | A30U C101A | 0.25
158 | A33U C101A | 0.35
159 | A33U A125G | 0.99
160 | A30G G104A | 0.08
161 | A30G C121A | 2.31
162 | A33U A64G | 1.31
163 | A33C A60G | 1.57
164 | A33C A66G | 1.88
165 | A33C A59G | 1.39
166 | A30U A92G | 0.91
167 | A33C U108C | 0.01
